Key:
[1] = target: T1, KIR3DL3 expressed on cells (human, UniProt Q8N743 26-410); assay: cell-based or functional assay
[2] = target: T1, KIR3DL3 expressed on cells; assay: blocking assay by flow cytometry on 300.19-KIR3DL3 cells; blocked ligand: recombinant biotinylated HHLA2, detected by streptavidin-APC
Description: Recombinant biotinylated HHLA2 at 5 mg/mL was added to the cells and incubated for 30 minutes. The cells were treated with 1:250 of APC-streptavidin for 30 minutes to detect recombinant biotinylated HHLA2 bound to cells. […] NPX267 blocked recombinant HHLA2-Fc from binding to its inhibitory receptor KIR3DL3 in a dose dependent manner.

[3] = target: T2, recombinant KIR3DL3 protein (human) (human, UniProt Q8N743 26-322, limits assumed); assay: SPR (Biacore); column ka1 (1/Ms); the drawn table names KIR3DL3 as analyte and NPX267 as ligand, paragraph 256 says the reverse
T2 construct: also called human KIR3DL3; killer cell immunoglobulin like receptor, three Ig domains and long cytoplasmic tail 3
T2 sequence (Q8N743 26-322 limits assumed): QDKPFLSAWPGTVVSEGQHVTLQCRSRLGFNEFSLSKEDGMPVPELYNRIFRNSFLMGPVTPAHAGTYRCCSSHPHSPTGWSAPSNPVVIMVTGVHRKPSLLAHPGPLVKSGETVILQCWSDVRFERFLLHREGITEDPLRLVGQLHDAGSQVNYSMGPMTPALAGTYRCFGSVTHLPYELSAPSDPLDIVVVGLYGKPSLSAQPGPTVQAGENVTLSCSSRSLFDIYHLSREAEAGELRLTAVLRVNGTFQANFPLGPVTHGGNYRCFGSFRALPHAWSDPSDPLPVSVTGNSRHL
Description: (§1) The monovalent binding affinity of NPX267 to recombinant KIR3DL3 protein was determined by SPR using a Biacore instrument; KIR3DL3 protein was immobilized on a CM5 chip and NPX267 was run as the analyte. […] No off-target binding was found in a screen of greater than 5800 plasma membrane proteins.

[4] = target: T1, KIR3DL3 expressed on cells; assay: flow cytometry on primary human NK cells in whole blood, Donor KP63935, GeoMean of anti-human PE secondary; no unit in the table, unit taken from the axis Log [ug/ml]
Description: (§2) For primary human NK cells, human whole blood cells were treated with NPX267 at concentrations ranging from […] to […] for 30 minutes (FIG. 3C). Red blood cells were lysed and cells were stained with a cocktail of anti-human CD3, Anti-human CD56 and anti-human IgG4 PE. Flow cytometric analysis of primary antibody binding was detected using an anti-human PE secondary antibody.

[5] = target: T2, recombinant KIR3DL3 protein (human); assay: SPR (Biacore); column kd1 (1/s); the drawn table names KIR3DL3 as analyte and NPX267 as ligand, paragraph 256 says the reverse
Description: as §1

[6] = target: T1, KIR3DL3 expressed on cells; assay: flow cytometry on primary human NK cells in whole blood, Donor KP63936, GeoMean of anti-human PE secondary; no unit in the table, unit taken from the axis Log [ug/ml]
Description: as §2

[7] = target: T2, recombinant KIR3DL3 protein (human); assay: SPR (Biacore), KIR3DL3 protein immobilized on a CM5 chip, NPX267 as analyte; KIR3DL3 immobilized on CM5 chip; NPX267 IgG4 as analyte
Description: as §1

[8] = target: T1, KIR3DL3 expressed on cells; assay: flow cytometry on 300.19-KIR3DL3 cells, anti-human PE secondary, gMFI
Description: (§3) Flow cytometric analysis of primary antibody binding was detected using an anti-human PE secondary antibody. The mean and standard deviation of duplicate data points are shown. Data performed in duplicate was entered into GraphPad Prism software and the EC₅₀ was determined using a 4-parameter nonlinear regression equation.

[9] = target: T1, KIR3DL3 expressed on cells; assay: flow cytometry on NK92MI cells, anti-human PE secondary, gMFI; no unit beside the number, unit taken from the axis log [ug/mL]
Description: as §3
NK92 MI cells were treated with NPX267 at concentrations ranging from […] to 0.0005 mg/mL for 30 minutes (FIG. 3B). Flow cytometric analysis of primary antibody binding was detected using an anti-human PE secondary antibody. The mean and standard deviation of triplicate data points are shown.

[10] = target: T1, KIR3DL3 expressed on cells; assay: flow cytometry on primary human NK cells in whole blood, Donor KP63901, GeoMean of anti-human PE secondary; no unit in the table, unit taken from the axis Log [ug/ml]
Description: as §2

T1 sequence (Q8N743 26-410): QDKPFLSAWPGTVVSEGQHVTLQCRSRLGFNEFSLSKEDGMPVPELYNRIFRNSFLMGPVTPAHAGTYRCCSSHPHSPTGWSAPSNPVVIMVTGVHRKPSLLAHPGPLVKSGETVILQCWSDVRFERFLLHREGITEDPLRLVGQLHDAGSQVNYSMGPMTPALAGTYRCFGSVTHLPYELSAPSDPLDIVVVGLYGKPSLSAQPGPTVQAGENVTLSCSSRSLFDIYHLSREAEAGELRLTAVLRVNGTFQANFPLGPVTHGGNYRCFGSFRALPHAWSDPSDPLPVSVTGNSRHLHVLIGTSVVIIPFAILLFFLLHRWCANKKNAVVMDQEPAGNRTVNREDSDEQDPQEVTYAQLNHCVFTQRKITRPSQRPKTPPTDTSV

- IC50 (read off the curve) [2]: ~0.05 µg/mL
- kon [3]: 587000 M⁻¹ s⁻¹
- EC50 [4]: 0.0294 µg/mL
- koff [5]: 0.000398 s⁻¹
- EC50 [6]: 0.098 µg/mL
- Kd [7]: 0.679 nM
- EC50 [8]: 0.0684 µg/mL
- EC50 [9]: 0.131 µg/mL
- EC50 [10]: 0.0298 µg/mL
B1: NPX267 (Hu26E10z7p7) (antibody, human IgG4 S228P, kappa, V domains shown)
VH: QAQLVQSGAEVKKPGASVKVSCKASGYTFTSYNIHWVRQAPGQGLEWMGYIYPGDAVTNYNQKFKGRVTMTADTSTSTVYMELSSLRSEDTAVYYCARSGNYGNYEGFAYWGQGTLVTVSS
VL: DIQMTQSPSSLSASVGDRVTITCKASQDTQSYLSWFQQKPGKAPKTLIYRANRLVDGVPSRFSGSGSGTDFTLTISSLQPEDFATYYCLQYDEFPYTFGGGTKVEIKR
notes: For staining of tumor infiltrating NK cells an APC conjugate (NPX267-APC) was used; also called humanized version of 26E10
- target cell death (Annexin V), NK92MI effector cells against K562 cells engineered to express HHLA2 [1]: 2 fold
